This assay addresses T1, Abp1 SH3 (ABP1_YEAST), P15891.
T1 chain: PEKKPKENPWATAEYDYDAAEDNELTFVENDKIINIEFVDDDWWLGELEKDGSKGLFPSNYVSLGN
The assay is described as follows: SPOT array.
EDEEGPPPAMPARP [YBL007C 188-201] had a normalised SPOT signal, Boehringer light units (BLU); mean over the file's lines of this peptide of 36.2.

Consider EEEIELPPGVKKP [YFL004W 659-671], for which the normalised SPOT signal, Boehringer light units (BLU); mean over the file's lines of this peptide amounted to 77.1.

As to DVMKQSFPRLIKP [YPL073C 93-105], the normalised SPOT signal, Boehringer light units (BLU); mean over the file's lines of this peptide is 2470.

On to DVGSTIPYDFPEKP [YGL212W 55-68], for which the normalised SPOT signal, Boehringer light units (BLU); mean over the file's lines of this peptide stood at 140.

DLKSRVLPHLKKP [YNL241C 60-72] displayed a normalised SPOT signal, Boehringer light units (BLU); mean over the file's lines of this peptide of 440.

As for DKYSTLRPGIPLKP [YDL164C 380-393], the normalised SPOT signal, Boehringer light units (BLU); mean over the file's lines of this peptide is 1000.

For EETIVFLQSDPSRP [YDR127W 1000-1013], the normalised SPOT signal, Boehringer light units (BLU); mean over the file's lines of this peptide was found to be 50.7.

Turning to DTKRLGTPESVKP [YLR071C 1030-1042], the normalised SPOT signal, Boehringer light units (BLU); mean over the file's lines of this peptide amounted to 130.

The molecule DLNNLKHPSKGRP [YMR304W 152-164] returned a normalised SPOT signal, Boehringer light units (BLU); mean over the file's lines of this peptide of 86.6.

Turning to DLPRLKWSAIPVRP [YMR265C 218-231], the normalised SPOT signal, Boehringer light units (BLU); mean over the file's lines of this peptide was determined as 2060.

Regarding EDFKDTKPVHKKP [YOR287C 64-76], the normalised SPOT signal, Boehringer light units (BLU); mean over the file's lines of this peptide amounted to 144.

As to DNDEEADPSSFKP [YLR087C 1186-1198], the normalised SPOT signal, Boehringer light units (BLU); mean over the file's lines of this peptide turned out to be 68.3.

The molecule DVAQPGGVAKPKKP [YNL298W 506-519] registered a normalised SPOT signal, Boehringer light units (BLU); mean over the file's lines of this peptide of 62.

Take DVPNTAGPHIARP [YOR028C 108-120]: the normalised SPOT signal, Boehringer light units (BLU); mean over the file's lines of this peptide turned out to be 144.

Molecule DSSLQHQQRQPKRP [YJR147W 209-222] returned a normalised SPOT signal, Boehringer light units (BLU); mean over the file's lines of this peptide of 105.

In the case of DPQIMDEYSYPGRP [YDR182W 95-108], the normalised SPOT signal, Boehringer light units (BLU); mean over the file's lines of this peptide came out at 144.

The molecule EEFDSYSRSRPTRP [YNL165W 290-303] returned a normalised SPOT signal, Boehringer light units (BLU); mean over the file's lines of this peptide of 254.

Regarding DNIAEYVPDKKRP [YMR266W 274-286], the normalised SPOT signal, Boehringer light units (BLU); mean over the file's lines of this peptide is 91.

DMERKMTPALNRP [YDR074W 548-560]: the normalised SPOT signal, Boehringer light units (BLU); mean over the file's lines of this peptide came to 2180.

The molecule DVITHFGPDADKP [YBL035C 6-18] gave a normalised SPOT signal, Boehringer light units (BLU); mean over the file's lines of this peptide of 25.6.

Turning to DTLYINGIRIPYRP [YPR032W 898-911], the normalised SPOT signal, Boehringer light units (BLU); mean over the file's lines of this peptide is 135.

Turning to EEPEDFLPPPPKP [YLR285W 15-27], the normalised SPOT signal, Boehringer light units (BLU); mean over the file's lines of this peptide was 108.

For DNARKSEELYPGRP [YAL038W 65-78], the normalised SPOT signal, Boehringer light units (BLU); mean over the file's lines of this peptide was 105.

On to EDDTNPQLLEPVKP [YDR528W 157-170], for which the normalised SPOT signal, Boehringer light units (BLU); mean over the file's lines of this peptide amounted to 86.1.

In turn, DVLFSYFPITFKP [YIL128W 218-230] gave a normalised SPOT signal, Boehringer light units (BLU); mean over the file's lines of this peptide of 32.1.

On to DLTVLRKPQQLRP [YDR488C 342-354], for which the normalised SPOT signal, Boehringer light units (BLU); mean over the file's lines of this peptide is 27100.

The molecule DKTRSSLHFKPMRP [YNL023C 749-762] yielded a normalised SPOT signal, Boehringer light units (BLU); mean over the file's lines of this peptide of 377.

Consider DLPEYLLPPDLKP [YDR477W 309-321], for which the normalised SPOT signal, Boehringer light units (BLU); mean over the file's lines of this peptide was 23.2.

Consider EEKAKAVNELPTKP [YGR037C 7-20], for which the normalised SPOT signal, Boehringer light units (BLU); mean over the file's lines of this peptide came to 188.

Take EALKQKKIPPPFKP [YHR205W 677-690]: the normalised SPOT signal, Boehringer light units (BLU); mean over the file's lines of this peptide came out at 3010.

DRRRLLGPAAAKP [YGR158C 5-17] yielded a normalised SPOT signal, Boehringer light units (BLU); mean over the file's lines of this peptide of 483.

DSVLRQKPDKPRP [YMR032W 380-392] displayed a normalised SPOT signal, Boehringer light units (BLU); mean over the file's lines of this peptide of 380.

DSKGARFLPAPHRP [YGR154C 60-73] yielded a normalised SPOT signal, Boehringer light units (BLU); mean over the file's lines of this peptide of 299.

Consider DTNDIKTPHPERP [YER169W 627-639], for which the normalised SPOT signal, Boehringer light units (BLU); mean over the file's lines of this peptide came to 77.3.

In turn, DSSSANGKFIPSRP [YHL007C 462-475] returned a normalised SPOT signal, Boehringer light units (BLU); mean over the file's lines of this peptide of 98.6.

The molecule EESKARSPGIAKP [YDR227W 268-280] had a normalised SPOT signal, Boehringer light units (BLU); mean over the file's lines of this peptide of 404.

Molecule DTERLKRDLSPRKP [YBL111C 228-241] came in with a normalised SPOT signal, Boehringer light units (BLU); mean over the file's lines of this peptide of 394.

Turning to DVDSSSTPFGTKP [YIL115C 681-693], the normalised SPOT signal, Boehringer light units (BLU); mean over the file's lines of this peptide came to 113.

Turning to EEFPEIIPLQQRP [YPL117C 30-42], the normalised SPOT signal, Boehringer light units (BLU); mean over the file's lines of this peptide worked out at 145.

DKVFIPDPKTGRP [YAL054C 106-118] registered a normalised SPOT signal, Boehringer light units (BLU); mean over the file's lines of this peptide of 66.6.

On to DVKKEQAPEGKRP [YDL213C 31-43], for which the normalised SPOT signal, Boehringer light units (BLU); mean over the file's lines of this peptide was 94.6.

DWALLRNQNDPQKP [YLR357W 414-427] gave a normalised SPOT signal, Boehringer light units (BLU); mean over the file's lines of this peptide of 145.

In the case of EEEEGEVLLPPSRP [YLR079W 130-143], the normalised SPOT signal, Boehringer light units (BLU); mean over the file's lines of this peptide is 81.5.

The molecule DQVPVTTQLPPIKP [YER159C 3-16] had a normalised SPOT signal, Boehringer light units (BLU); mean over the file's lines of this peptide of 74.1.

Molecule DPEPAKASTKPEKP [YNL106C 1102-1115] had a normalised SPOT signal, Boehringer light units (BLU); mean over the file's lines of this peptide of 76.2.

Regarding DLNDSGFPPKRKP [YMR275C 4-16], the normalised SPOT signal, Boehringer light units (BLU); mean over the file's lines of this peptide worked out at 84.6.

In turn, DLEFIYDTFHPFKP [YPL009C 301-314] registered a normalised SPOT signal, Boehringer light units (BLU); mean over the file's lines of this peptide of 89.2.

In turn, DLHTHNLHTIPRKP [YNL042W 273-286] returned a normalised SPOT signal, Boehringer light units (BLU); mean over the file's lines of this peptide of 76.

Molecule EFRKSDEPVSVKP [YBR237W 77-89] came in with a normalised SPOT signal, Boehringer light units (BLU); mean over the file's lines of this peptide of 69.6.

In turn, DSIAKLQPQVYKP [YFR037C 542-554] yielded a normalised SPOT signal, Boehringer light units (BLU); mean over the file's lines of this peptide of 83.3.

In the case of DQNQERKNSVPKKP [YHR004C 68-81], the normalised SPOT signal, Boehringer light units (BLU); mean over the file's lines of this peptide was found to be 60.

For the molecule DMFDFLIDVVPRRP [YOR358W 226-239], the normalised SPOT signal, Boehringer light units (BLU); mean over the file's lines of this peptide was 230.

Turning to DVIISPTTLMPFRP [YDR242W 443-456], the normalised SPOT signal, Boehringer light units (BLU); mean over the file's lines of this peptide is 68.9.

DSIWPDFETLPERP [YLL029W 272-285] came in with a normalised SPOT signal, Boehringer light units (BLU); mean over the file's lines of this peptide of 0.

(Values after article PMC314469, “Protein Interaction Networks by Proteome Peptide Scanning” (PLoS Biology, 2004).)
